{
  "source": "IntAct's records for PubMed 19402751",
  "molecular_target": "T1, tim_drome tim (UniProt P49021)",
  "T1 sequence": "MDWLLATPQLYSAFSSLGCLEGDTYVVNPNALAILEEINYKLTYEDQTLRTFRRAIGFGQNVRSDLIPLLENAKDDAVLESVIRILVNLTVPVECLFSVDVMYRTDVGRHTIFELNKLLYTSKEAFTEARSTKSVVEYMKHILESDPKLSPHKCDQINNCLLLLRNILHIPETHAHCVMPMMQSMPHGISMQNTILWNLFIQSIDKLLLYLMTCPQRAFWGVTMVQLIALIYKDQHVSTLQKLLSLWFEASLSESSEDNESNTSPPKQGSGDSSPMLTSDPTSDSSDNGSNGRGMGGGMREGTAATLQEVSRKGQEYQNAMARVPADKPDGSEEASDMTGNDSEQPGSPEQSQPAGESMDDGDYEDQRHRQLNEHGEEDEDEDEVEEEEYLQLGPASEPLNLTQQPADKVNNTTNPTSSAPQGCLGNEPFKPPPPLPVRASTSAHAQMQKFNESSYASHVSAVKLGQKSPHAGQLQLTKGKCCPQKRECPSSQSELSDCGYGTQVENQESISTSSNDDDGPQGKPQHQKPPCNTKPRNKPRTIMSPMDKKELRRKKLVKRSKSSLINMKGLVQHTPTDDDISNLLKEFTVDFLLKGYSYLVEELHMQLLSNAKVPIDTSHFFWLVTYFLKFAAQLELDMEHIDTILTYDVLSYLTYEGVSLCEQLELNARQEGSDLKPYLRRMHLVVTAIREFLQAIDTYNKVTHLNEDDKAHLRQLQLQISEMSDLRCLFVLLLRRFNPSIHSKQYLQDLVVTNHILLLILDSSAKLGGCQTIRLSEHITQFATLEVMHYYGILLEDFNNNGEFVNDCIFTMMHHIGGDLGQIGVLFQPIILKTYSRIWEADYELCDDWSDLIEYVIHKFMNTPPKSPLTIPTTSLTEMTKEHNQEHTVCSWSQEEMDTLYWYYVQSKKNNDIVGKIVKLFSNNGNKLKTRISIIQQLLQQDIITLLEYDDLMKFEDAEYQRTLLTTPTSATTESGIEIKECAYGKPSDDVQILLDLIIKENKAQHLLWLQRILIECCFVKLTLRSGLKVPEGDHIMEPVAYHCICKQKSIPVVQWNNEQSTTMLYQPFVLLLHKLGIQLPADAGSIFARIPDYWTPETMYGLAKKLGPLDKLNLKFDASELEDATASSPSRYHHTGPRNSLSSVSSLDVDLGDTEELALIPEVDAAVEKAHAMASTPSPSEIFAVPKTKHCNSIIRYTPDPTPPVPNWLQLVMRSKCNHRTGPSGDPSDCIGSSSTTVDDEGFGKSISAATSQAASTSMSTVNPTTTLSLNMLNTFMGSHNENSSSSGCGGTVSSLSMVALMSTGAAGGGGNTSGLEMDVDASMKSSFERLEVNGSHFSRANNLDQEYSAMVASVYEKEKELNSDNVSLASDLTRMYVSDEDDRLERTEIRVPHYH",
  "data": [
    {"substance": "Period circadian protein (Drosophila melanogaster (Fruit fly)) (from UniProt P07663-1) E474R;H492S;R494D", "values": [
      {"measurement": "effect of a mutation on the interaction", "result": "disrupting interaction"}
    ]}
  ]
}
